Measurements from publication PMC8866402.

Experiments:
[1] = molecular target: recombinant human TGF-β1 produced in-house (human)
[2] = molecular target: recombinant mouse TGF-β1 (mouse)
Chain of recombinant mouse TGF-β1 (mouse) (P04202 279-390): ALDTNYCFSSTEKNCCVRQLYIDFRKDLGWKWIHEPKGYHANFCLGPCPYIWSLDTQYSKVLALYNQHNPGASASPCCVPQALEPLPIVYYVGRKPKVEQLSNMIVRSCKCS

Chain of recombinant human TGF-β1 produced in-house (human) (P01137 279-390): as the sequence (P04202 279-390) above, with S75A counted along it

B1: strep-tag-fortilin (recombinant human fortilin with an N-terminal Strep-tag II) (natural protein)
chain: MIIYRDLISHDEMFSDIYKIREIADGLCLEVEGKMVSRTEGNIDDSLIGGNASAEGPEGEGTESTVITGVDIVMNHHLQETSFTKEAYKKYIKDYMKSIKGKLEEQRPERVKPFMTGAAEQIKHILANFKNYQFFIGENMNPDGMVALLDYREDGVTPYMIFFKDGLEMEKC
- SBE-luciferase activity (firefly/Renilla) in HEK293 cells treated with TGF-β1 (1 nM) without vs with strep-tag-fortilin (3 nM); value given is with fortilin [1]: 5.4 A.U.
- SEAP reporter (SBE) activity of MFB-F11 cells stimulated with 156 pM TGF-β1 pre-incubated with 0, 19.5 or 195 nM strep-tag-fortilin; value given is at 195 nM fortilin [2]: 6.3 A.U.
